The supplement of paper PMC7877785
± gives the uncertainty stated by the source.

Experiment: self-splicing fitness, log relative to wild type (ln ratio); higher = more splicing; Tetrahymena group I intron in knt gene, E. coli kanamycin selection, DiMSum; sequences stand for … in CUCUCU…GGAGGGAAAAGUUAUCAGGCAUGCACCUGGUAGCUAGUCUUUAAACCAAUAGAUUGCAUCGGUUUAAAAGGCAAGACCGUCAAAUUGCGGGAAAGGGGUCAACAGCCGUUCAGUACCAAGUCUCAGGGGAAACUUUGAGAUGGCCUUGCAAAGGGUAUGGUAAUAAGCUGACGGACAUGGUCCUAACCACGCAGCCAAGUCCUAAGUCAACAGAUCUUCUGUUGAUAUGGAUGCAGUUCACAGACUAAAUGUCGGUCGGGGAAGAUGUAUUCUUCUCAUAAGAUAUAGUCGGACCUCUCCUUAAUGGGAGCUAGCGGAUGAAGUGAUGCAACACUGGAGCCGCUGGGAACUAAUUUGUAUGCGAAAGUAUAUUGAUUAGUUUUGGAGUACUCGUGGUCG
Method in brief: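 Library with all eight P1ex-region intron nucleotides randomised, intron inside the knt kanamycin-resistance gene on pET-22b(+), in E. coli BL21(DE3). Cells grew overnight at 37°C or 30°C on LB agar with or without 25 μg/mL kanamycin (plus 100 μg/mL carbenicillin, 50 μM IPTG, 0.2% rhamnose), in six replicate transformations. Pooled colonies were amplicon-sequenced on Illumina HiSeq 2500. DiMSum fitness is the error-weighted combination of wild-type-normalised replicate fold changes, kanamycin versus none.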

Sequence | self-splicing fitness (ln) (30 °C) | self-splicing fitness (ln) (37 °C)
CUACAGCAAUAUUACGUGGU | -3.31 ± 0.22 | -3.03 ± 0.28
CUACAGCAAUAUUACGUGUG | -1.63 ± 0.055 | -0.0421 ± 0.061
CUACAGCAAUAUUACGUUAA | -3.48 ± 0.21 | -2.94 ± 0.2
CUACAGCAAUAUUACGUUGG | -3.51 ± 0.15 | -2.45 ± 0.14
CUAGAGCAAUAUUACGAAUA | -3.49 ± 0.48 | -1.86 ± 0.34
CUAGAGCAAUAUUACGAGGC | -3.08 ± 0.26 | -1.02 ± 0.23
CUAGAGCAAUAUUACGAGGG | -2.12 ± 0.19 | -1.73 ± 0.33
CUAGAGCAAUAUUACGAGUU | -3.23 ± 0.31 | -2.36 ± 0.3
CUAGAGCAAUAUUACGAUAC | -2.63 ± 0.35 | -2.25 ± 0.34
CUAGAGCAAUAUUACGAUAG | -0.96 ± 0.1 | 0.0398 ± 0.18
CUAGAGCAAUAUUACGAUCA | -2.35 ± 0.45 | –
CUAGAGCAAUAUUACGAUUC | -2.96 ± 0.29 | -2.75 ± 0.48
CUAGAGCAAUAUUACGCAAC | -1.32 ± 0.22 | –
CUAGAGCAAUAUUACGCCAA | -0.987 ± 0.2 | -2.54 ± 0.41
CUAGAGCAAUAUUACGCUGU | -3.92 ± 0.37 | -2.69 ± 0.36
CUAGAGCAAUAUUACGGAUA | – | -1.44 ± 0.4
CUAGAGCAAUAUUACGGCCU | -2.72 ± 0.44 | -1.69 ± 0.44
CUAGAGCAAUAUUACGGGCG | 0.0237 ± 0.11 | 0.638 ± 0.14
CUAGAGCAAUAUUACGGGUG | 0.162 ± 0.073 | -0.643 ± 0.082
CUAGAGCAAUAUUACGGGUU | -4.2 ± 0.29 | -2.33 ± 0.23
CUAGAGCAAUAUUACGGUCU | – | -3.69 ± 0.34
CUAGAGCAAUAUUACGUAUU | -3.42 ± 0.17 | -3.03 ± 0.26
CUAGAGCAAUAUUACGUCCG | -0.472 ± 0.087 | -0.0677 ± 0.14
CUAGAGCAAUAUUACGUCUG | 0.15 ± 0.094 | 0.417 ± 0.11
CUAUAGCAAUAUUACGAACC | -2.11 ± 0.49 | –
CUAUAGCAAUAUUACGACCU | -2.85 ± 0.42 | –
CUAUAGCAAUAUUACGACGG | 0.143 ± 0.13 | 0.155 ± 0.15

Sequence | self-splicing fitness (ln) (30 °C) | self-splicing fitness (ln) (37 °C)
CUAUAGCAAUAUUACGACUG | 0.0686 ± 0.17 | -0.119 ± 0.17
CUAUAGCAAUAUUACGAUAC | – | -2.61 ± 0.33
CUAUAGCAAUAUUACGAUCA | -3.08 ± 0.33 | 0.388 ± 0.31
CUAUAGCAAUAUUACGCCAG | -1.83 ± 0.18 | -0.622 ± 0.25
CUAUAGCAAUAUUACGCCUU | – | -2.27 ± 0.39
CUAUAGCAAUAUUACGGACG | 0.217 ± 0.093 | 0.437 ± 0.12
CUAUAGCAAUAUUACGGCGU | -4.65 ± 0.46 | -2.24 ± 0.43
CUAUAGCAAUAUUACGGGGA | -2.58 ± 0.17 | -2.87 ± 0.31
CUAUAGCAAUAUUACGGGUA | -2.54 ± 0.19 | -2.34 ± 0.21
CUAUAGCAAUAUUACGGUGG | -3.27 ± 0.24 | -2.22 ± 0.25
CUAUAGCAAUAUUACGUGGU | -3.34 ± 0.23 | -2.76 ± 0.2
CUAUAGCAAUAUUACGUGUC | -4.02 ± 0.24 | -3.09 ± 0.27
CUAUAGCAAUAUUACGUUUA | -3.4 ± 0.36 | -1.74 ± 0.19
CUCAAGCAAUAUUACGAAUC | – | -1.91 ± 0.3
CUCAAGCAAUAUUACGACUA | -2.02 ± 0.31 | -2.64 ± 0.34
CUCAAGCAAUAUUACGAUCG | -1.26 ± 0.1 | -0.0967 ± 0.13
CUCAAGCAAUAUUACGAUGG | -1.28 ± 0.061 | 0.0609 ± 0.08
CUCAAGCAAUAUUACGAUUG | -3.85 ± 0.18 | -2.5 ± 0.17
CUCAAGCAAUAUUACGCAAA | -3.82 ± 0.31 | -2.47 ± 0.25
CUCAAGCAAUAUUACGCAAC | -2.65 ± 0.36 | –
CUCAAGCAAUAUUACGCAUG | -4.22 ± 0.36 | -1.65 ± 0.18
CUCAAGCAAUAUUACGCCAU | – | -1.99 ± 0.37
CUCAAGCAAUAUUACGCCCU | -3.13 ± 0.44 | -1.36 ± 0.36
CUCAAGCAAUAUUACGCCUC | -2.98 ± 0.14 | -2.97 ± 0.28
CUCAAGCAAUAUUACGCUGG | -3.19 ± 0.15 | -2.62 ± 0.23
CUCAAGCAAUAUUACGCUUC | -2.35 ± 0.26 | -2.7 ± 0.26
CUCAAGCAAUAUUACGGAAC | -4.26 ± 0.42 | -2.46 ± 0.3

Sequence | self-splicing fitness (ln) (30 °C) | self-splicing fitness (ln) (37 °C)
CUCAAGCAAUAUUACGGCUG | -3.41 ± 0.26 | -2.57 ± 0.27
CUCAAGCAAUAUUACGGGGA | -2.01 ± 0.15 | -1.33 ± 0.17
CUCAAGCAAUAUUACGGUCA | -3.19 ± 0.2 | -2.35 ± 0.2
CUCAAGCAAUAUUACGGUCC | -3.02 ± 0.22 | 0.396 ± 0.18
CUCAAGCAAUAUUACGGUCG | -1.96 ± 0.098 | -1.19 ± 0.12
CUCAAGCAAUAUUACGUAAU | -3.29 ± 0.12 | -2.22 ± 0.1
CUCAAGCAAUAUUACGUAUU | -3.74 ± 0.19 | -2.58 ± 0.21
CUCAAGCAAUAUUACGUCUC | -4.33 ± 0.39 | -0.263 ± 0.2
CUCAAGCAAUAUUACGUGUA | -2.47 ± 0.13 | -1.91 ± 0.11
CUCAAGCAAUAUUACGUUUC | -4.05 ± 0.24 | -3.83 ± 0.37
CUCCAGCAAUAUUACGAACU | -2.92 ± 0.33 | -1.12 ± 0.29
CUCCAGCAAUAUUACGAAGA | – | -3.41 ± 0.42
CUCCAGCAAUAUUACGAAUG | -1.39 ± 0.083 | -0.438 ± 0.11
CUCCAGCAAUAUUACGAGCG | -2.95 ± 0.16 | -2.56 ± 0.23
CUCCAGCAAUAUUACGAGCU | -4.01 ± 0.28 | -2.44 ± 0.23
CUCCAGCAAUAUUACGAGGU | -4.41 ± 0.31 | -3.07 ± 0.24
CUCCAGCAAUAUUACGAUAA | -3.22 ± 0.16 | -2.41 ± 0.18
CUCCAGCAAUAUUACGAUAG | -1.6 ± 0.079 | -0.825 ± 0.1
CUCCAGCAAUAUUACGAUUG | -1.53 ± 0.078 | -0.899 ± 0.11
CUCCAGCAAUAUUACGCCCG | -2.56 ± 0.17 | -0.904 ± 0.19
CUCCAGCAAUAUUACGCCGG | -3.83 ± 0.26 | -2.98 ± 0.24
CUCCAGCAAUAUUACGCCGU | -3.6 ± 0.3 | -3.11 ± 0.35
CUCCAGCAAUAUUACGCCUA | -2.87 ± 0.2 | -1.94 ± 0.2
CUCCAGCAAUAUUACGCUCG | -3.69 ± 0.27 | -2.36 ± 0.39
CUCCAGCAAUAUUACGCUGC | -3.32 ± 0.15 | -2.07 ± 0.21
